Data published in patent US7291673B2, “Conjugate addition reactions for the controlled delivery of pharmaceutically active compounds” (Eidgenossiche Technische Hochschule Zurich, priority 2000, dated 2007).
One block for each compound: values may come before it. Non-standard residues stand in square brackets, D forms with d. Residues, ends and D or L forms follow the SMILES beside them. No end group written: not given here.

Key:
[1] = molecular target: T1, Collagenase (Matrix metalloproteinase I) (Homo sapiens, UniProt P03956); details: cited from earlier work
T1 sequence (P03956 100-469): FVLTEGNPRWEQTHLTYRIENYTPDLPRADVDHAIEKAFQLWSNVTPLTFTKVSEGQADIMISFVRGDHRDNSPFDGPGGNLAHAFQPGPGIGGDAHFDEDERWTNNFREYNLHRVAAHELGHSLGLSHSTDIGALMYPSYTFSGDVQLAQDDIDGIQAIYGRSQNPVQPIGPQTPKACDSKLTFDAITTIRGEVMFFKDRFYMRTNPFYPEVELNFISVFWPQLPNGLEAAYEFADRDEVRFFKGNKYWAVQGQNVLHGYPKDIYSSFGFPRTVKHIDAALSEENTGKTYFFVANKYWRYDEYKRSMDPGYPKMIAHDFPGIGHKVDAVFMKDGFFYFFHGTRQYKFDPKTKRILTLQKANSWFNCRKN

[2] = Dissolution of albumin particles in PEG solutions; format: physicochemical
Text: For the gels in which controlled release was observed, protein particles could be seen within the gels for the entire period of release. For all gels, the disappearance of protein particles from the gel was coincident with the completion of delivery of greater than 90% of the protein in the gel. Thus, the solubility of bovine serum albumin in PEG-containing solutions was likely the most important factor in realizing controlled release of the protein. When a solution containing dissolved albumin was mixed with a solution containing dissolved PEG, the albumin precipitated, dependent upon the concentrations and the molecular weight of the PEG. Similarly, when particles of bovine serum albumin were added to a PEG solution, the kinetics of dissolution of the albumin were strongly affected by the presence of PEG. The albumin solids completely dissolved in 50 mM PBS buffer, pH 7.4 in three minutes in the absence of PEG. With 10% PEG molecular weight 8000 in solution, the time to dissolution of the albumin particles increased to six minutes. […] With 20% PEG molecular weight 8000, the protein particles dissolved to form a second liquid phase within one hour. This was presumably a true coacervate with one protein-rich, polymer-poor phase, and one polymer-rich, protein-poor phase.

[3] = cited from earlier work
[4] = test system: Human foreskin fibroblasts; assay: Fibroblast adhesion and spreading on conjugate addition gels; format: cell-based; details: 6 hours post-seeding; RGD peptide on one of every 12 acrylates
Protocol: Conjugate addition gels were made with 0.1 g/ml PEG-2500-3A and 1.1 acrylates per sulfhydryl in […]. The gels were swollen for 24 hours in Dulbecco's modified Eagle's medium (some in serum-free conditions and some in 10% fetal bovine serum) containing 1% antibiotic and antimycotic agents. Human foreskin fibroblasts (passage 7; passaged with trypsin/EDTA) were seeded onto the gels. […] The cells became increasingly clumped together. The cellular behavior was independent of serum in the medium. Control cells seeded on tissue culture treated polystyrene spread normally.
Conjugate addition gels were made with PEG-2500-3A, […], and an RGD-containing peptide ([…]) incorporated in a pendant fashion. The gels were made with 0.1 g PEG-2500-3A/ml and 1.1 acrylates per sulfhydryl in […]. The gels were swollen for more than 36 hours in Dulbecco's modified Eagle's medium (some in serum-free conditions and some in 10% fetal bovine serum) containing 1% antibiotic and antimycotic agents. When the RGD peptide was incorporated on one of every 12 acrylates of the PEG-2500-3A, human foreskin fibroblasts (passage 8; passaged by trypsin/EDTA) adhered to the gels (both those swollen in serum-free conditions and those in serum-containing medium). At 6 hours post-seeding, the cells were uniformly distributed over the gel surface, and approximately 50% of the seeded cells were spread (in both medium conditions). […]

[5] = test system: human umbilical vein endothelial cells; assay: Endothelial cell spreading on photopolymerized PEG gels containing peptides; format: cell-based; details: 400 cells per mm^2; normal cell culture medium
Protocol: Polyethylene glycol diacrylate of mol. wt. 8000 (230 mg/ml) was allowed to dissolve in HEPES buffered saline (10 mmol HEPES, Sigma, 8 g/L NaCl, pH 7.4) for one hour. Triethanolamine (Aldrich, 15.3 μl/ml) was added, and the pH of the solution was adjusted to pH 8 with 6 N HCl. Cysteine containing peptides were dissolved in 116.5 μl of HEPES buffered saline, and added to 870 μl of the PEG solution with vortexing. After 5 minutes, 3.5 μl of N-vinyl pyrrolidone and 10 μl of a 10 mM solution of Eosin Y were added, followed by vortexing. Gels were formed by exposure to light at 75 mW/cm^2 for one minute (Cermax Xenon Lightsource, transmitting light between 470 and 520 nm; ILC Technology, Sunnyvale, Calif., USA). Gels were allowed to swell in Tris buffered saline, pH 7.4 (4.36 g Tris HCl, 0.64 g Trizma base, 8 g NaCl, 0.2 g KCl per 1 L, all from Sigma) for 36 hr.
PEG gels were prepared as described above, using the peptide […]. Most cells have receptors that recognize the sequence GRGDSPG (SEQ ID NO: 74), and cells will interact with surfaces displaying immobilized RGD containing peptides. […] Cells were seeded onto the gels at a concentration of 400 cells per mm^2, and the number of spread cells per area were counted at different times (see FIG. 6). […]

plasmin = plasmin (Homo sapiens, UniProt P00747); assay: Plasmin stability of peptides by analytical C18 HPLC; format: biochemical; details: 37° C.; plasmin at 1/1000 the peptide concentration
Text: Analytical C18 HPLC (linear acetonitrile gradient over 0.1% TFA in water) was used to confirm the relative plasmin-stability of GCY-DLys-N-DArg-DCG. The following samples were run: plasmin; […]; plasmin+[…]; GCY-DLys-N-DArg-DCG; and plasmin+GCY-DLys-N-DArg-DCG.

[6] = Water solubility of peptide; format: physicochemical
Protocol: The peptide […] (SEQ ID NO: 58) was designed to be sensitive to hydrolysis by the enzyme plasmin, to contain more than one thiol (cysteine) for addition reaction with conjugated unsaturated groups, and to be very water soluble. The peptide was synthesized according to the methods described above. The peptide was extremely water soluble, up to at least 120 mg/ml.

Chain of plasmin (P00747 581-810 limits assumed, species assumed): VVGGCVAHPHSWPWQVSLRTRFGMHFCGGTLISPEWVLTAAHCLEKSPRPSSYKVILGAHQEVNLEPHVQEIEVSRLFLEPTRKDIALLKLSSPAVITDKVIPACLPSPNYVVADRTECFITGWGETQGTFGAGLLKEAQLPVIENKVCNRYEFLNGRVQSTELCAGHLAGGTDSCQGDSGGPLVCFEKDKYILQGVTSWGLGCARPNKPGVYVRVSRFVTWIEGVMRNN
Chain of plasmin (P00747 97-580 partner limits assumed, species assumed): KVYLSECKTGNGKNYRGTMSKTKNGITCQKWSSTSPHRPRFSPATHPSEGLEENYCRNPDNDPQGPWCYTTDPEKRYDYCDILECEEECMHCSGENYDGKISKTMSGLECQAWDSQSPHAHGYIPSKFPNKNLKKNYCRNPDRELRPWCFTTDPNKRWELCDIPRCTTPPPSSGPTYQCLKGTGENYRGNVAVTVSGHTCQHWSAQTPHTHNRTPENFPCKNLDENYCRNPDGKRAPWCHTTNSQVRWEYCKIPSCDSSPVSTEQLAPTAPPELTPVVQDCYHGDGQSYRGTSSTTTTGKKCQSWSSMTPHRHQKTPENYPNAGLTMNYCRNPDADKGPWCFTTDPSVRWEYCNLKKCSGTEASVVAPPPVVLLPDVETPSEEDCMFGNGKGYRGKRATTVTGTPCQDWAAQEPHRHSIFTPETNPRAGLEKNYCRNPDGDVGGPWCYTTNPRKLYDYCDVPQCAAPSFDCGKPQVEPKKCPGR

Compound: GPVGIAGQ
kcat/Km relative to that of PQGIAG [1]: 30% (slow)

Compound: GPQGIAGQ
kcat/Km relative to that of PQGIAG [1]: 100% (normal)

Compound: albumin: bovine serum albumin (Cohn fraction V), model protein
time to complete dissolution of albumin solids ([2]; 50 mM PBS buffer, pH 7.4, absence of PEG): three
time to dissolution of albumin particles ([2]; 10% PEG molecular weight 8000): six
time to dissolve into a second liquid phase ([2]; 20% PEG molecular weight 8000): one
dissolution of protein ([2]; 30 or 40% PEG molecular weight 8000): did not dissolve after seven days

Compound: GPQGIWGQ
kcat/Km relative to that of PQGIAG [1]: >700% (very fast)

Compound: GPQGVAGQ
kcat/Km relative to that of PQGIAG [1]: 9% (slower)

Compound: NC(=O)C[C@H](N)C(=O)O [asparagine]
pK of alpha amine ([3]; alpha amine of amino acid): 8.8

Compound: GCGYGRGDSPG (not fully specified) [RGD-containing adhesion peptide incorporated into gels in a pendant fashion]
seeded cells spread [4]: approximately 50%
cell spreading on PEG gels containing peptide [5]: Cells could only spread on gels that contained the peptide

Compound: GCGYGRDGSPG (Based on Homo sapiens)
cell spreading on PEG gels containing peptide [5]: has no biological activity

degradation of peptide by plasmin (plasmin): unaffected by the plasmin at 24 hours
Compound: GCY-DLys-N-DArg-DCG (GCY[dK]N[dR]DCG; cysteine pairing not given here)

Compound: NCCCC[C@H](N)C(=O)O [lysine]
pK of side chain epsilon amine ([3]; side chain epsilon amine): 10.80

solubility [6]: ≥ 120 mg/mL
Compound: N=C(N)NCCC[C@H](NC(=O)[C@H](CC(N)=O)NC(=O)[C@H](CCCCN)NC(=O)[C@H](Cc1ccc(O)cc1)NC(=O)[C@H](CS)NC(=O)CN)C(=O)N[C@@H](CC(=O)O)C(=O)N[C@@H](CS)C(=O)NCC(=O)O (H-GCYKNRDCG-OH; N-terminus and C-terminus assumed)

Compound: GPQGIASQ
kcat/Km relative to that of PQGIAG [1]: 130% (fast)

Compound: GPQGRAGQ
kcat/Km relative to that of PQGIAG [1]: <5% (very slow)

Compound: GPQGIFGQ
kcat/Km relative to that of PQGIAG [1]: >300% (faster)
